Data reported in patent US20240100174A1, “PROTEIN-PEG INTERACTIONS THAT REDIRECT THE THERMAL UNFOLDING PATHWAY OF PEGYLATED HUMAN GALECTIN-3C” (UNIVERSITY OF FLORIDA RESEARCH FOUNDATION, INCORPORATED, priority 2022, published 2024).
Values joined by “and” are separate entries in the source; they are usually repeats but may differ in a detail not shown here. Identical values can stand only once.

Test: Variable temperature circular dichroism (CD) thermal unfolding
Assay type: physicochemical
Conditions: for fitted melting temperature (Tm): CD at 220 nm
Protocol: CD spectroscopic data were recorded with an Applied Photophysics™ Chirascan spectrophotometer equipped with a Quantum Northwestern Peltier temperature control device and operating with Chirascan v4.7.0 and Pro-Data™ Viewer software. Samples were prepared in PBS at final concentrations of 10 μM. All samples were contained in 2 mm tapered quartz cuvettes, and a temperature probe was inserted through the cuvette cap to monitor the sample temperature in real time. The following parameters were used for constant temperature experiments: CD signal measured in millidegrees, bandwidth of 1.0 nm, wavelength scan from 200-280 nm, step size of 2.0 nm. Spectra were background subtracted against the sample buffer. For thermal unfolding experiments, a linear thermal ramp was applied from 30° C. to 90° C. at 1° C. per minute. All spectra were measured in triplicate, and data were normalized to account for slight differences in protein concentration.
To calculate melting temperatures of unconjugated Gal3C, Gal3C[T243C], and Gal3C[T243C] variants containing lysine replacements, the normalized data were fit to a Boltzmann sigmoidal function in Origin v8.5. For the data fitting, no parameters were fixed, and the ‘x’ parameter defined as the center of the data was interpreted as the melting temperature (Tm). Variable temperature CD data of PEGylated Gal3C[T243C] and Gal3C[T243C] variants were fit with a sum of two Boltzmann sigmoidal functions, as shown below:
where ‘A1’, ‘A2’, and ‘A3’ represent three plateaus of the CD signal, ‘dx1’ and ‘dx2’ are the change in x between the plateaus for each melting transition, and ‘x1’ and ‘x2’ are the two Tm values extracted by the fit for the first and second unfolding transitions, respectively. Because the third plateau, A3, occurred at temperatures higher than the experimentally accessible range, this value was estimated. A single wavelength for plotting on the y-axis was selected by calculating the wavelength of greatest CD signal change for each PEGylated construct.
To record a CD spectrum of Gal3C[T243C] with free PEG, a stock solution of methoxy-PEG (mPEG) in 1×PBS was added immediately before the experiment to a solution containing protein (20 μM, 1 ×PBS) to a final concentration of 22 μM mPEG. All thermal melt parameters were the same as listed in the above described experiments.
CD spectroscopic data were recorded with an Applied Photophysics Chirascan spectrophotometer equipped with a Quantum Northwestern Peltier temperature control device and operating with Chirascan v4.7.0 and Pro-Data Viewer software, following procedures used in our previous study.^4 Spectra were background subtracted against the sample buffer. For thermal unfolding experiments, a linear thermal ramp was applied from 30° C. to 90° C. at 1° C. per minute with samples concentrated to 10 μM in PBS. All spectra were measured in triplicate, and data were normalized to account for slight differences in protein concentration.
Full wavelength (200-280 nm) CD spectra for each construct (FIG. 43) were used to calculate a wavelength of greatest change (222 or 224 nm) to create single wavelength CD vs. temperature plots (FIG. 30H-J and FIG. 31F-G). The single wavelength CD signal vs. temperature plot of Gal3C[T243C] used data acquired at 220 nm, which was the wavelength of greatest change for the unmodified protein. To calculate melting temperatures, the normalized data were fit to a Boltzmann sigmoidal function in Origin v8.5. For the data fitting, no parameters were fixed, and the ‘x’ parameter defined as the center of the data was interpreted as the melting temperature (Tm).

B1: Gal3C[T243C]: Gal3C variant with a single extrinsic cysteine at position 243; SEQ ID NO: 11 (protein)
chain: MAGPLIVPYNLPLPGGVVPRMLITILGTVKPNANRIALDFQRGNDVAFHFNPRFNENNRRVIVCNTKLDNNWGREERQSVFPFESGKPFKIQVLVEPDHFKVAVNDAHLLQYNHRVKKLNEISKLGISGDIDLTSASYCMILEHHHHHH
fitted melting temperature (Tm) (20 μM protein in the absence of free PEG-OH): 57.5 °C | fitted melting temperature (Tm) (20 μM protein in the presence of 22 μM free PEG-OH): 57.7 °C | Tm1 ± StDev (normalized CD at 220 nm vs. temperature, 3 replicates averaged, ramp 30-90° C. at 1° C. per minute): 58.1 °C and 58.1 ± 0.5 °C | thermal unfolding behaviour / formation of unfolding intermediate (result in words, for polymer conjugates the selected SEC fractions): single cooperative unfolding transition | Tm / Tm1 (values of Summary of Results, Tm for unconjugated protein, Tm1 for PEG conjugate): 58.0 °C
